Measurements reported in patent US20250353917A1 (SYSTIMMUNE, published 2025).
Read-outs that look alike come from different tables or passages of the source.

How the values were obtained:
[1] = target: T1, EGFR on BxPC-3 cells (UniProt P00533 25-1210, limits assumed); experiment: cell-based or functional assay
[2] = target: T2, His-tagged human EGFR (human, UniProt P00533 25-645, limits assumed); experiment: BLI (Octet), scFv-His coupled to AR2G sensors, His-tagged human EGFR in solution, 1:1 global fit
T2 construct: also called huEGFR
Protocol: (§1) Fc-containing protein was captured to anti-human Fc (AHC) sensor tips by loading for 180 seconds at 10 μg/ml. Alternatively, His-tagged proteins were covalently coupled at 10 ug/ml to AR2G tips using manufacturer protocol. After a 60-second baseline step, a 180- to 300-second association phase with serial dilutions (0-200 nM; 1:2.5 dilution factor) or a single 100 nM concentration of purified human EGFR in assay buffer (phosphate-buffered saline containing 0.1% BSA, 0.05% Tween20) was performed, followed by a 300- to 600—second dissociation phase in assay buffer. Regeneration was achieved using 10 mM glycine, pH 1.5. Binding curves were globally fit to a 1:1 model to extract the dissociation constants, KD. Binding kinetics for each protein were assessed in duplicate, with tabulated values reported as average±standard deviation.

[3] = target: T2, His-tagged human EGFR; experiment: as above; remark: listed apart in the source
Protocol: as §1

[4] = target: T3, soluble recombinant extracellular domain of human EGFR (human, UniProt P00533 25-645); experiment: BLI (Octet), mAb on AHC sensors, soluble EGFR extracellular domain
T3 construct: extracellular domain
Protocol: as §1

[5] = target: T1, EGFR on BxPC-3 cells; experiment: cell-based or functional assay; remark: listed apart in the source

B1: SI-68P17 (other)
heavy: DVVMTQSPSTLSASVGDRVTINCQASESISSWLAWYQQKPGKAPKLLIYEASKLASGVPSRFSGSGSGTEFTLTISSLQPDDFATYYCQGYFYFISRTYVNSFGGGTKVEIKGGGGSGGGGSGGGGSGGGGSEVQLVESGGGLVQPGGSLRLSCAASGFTISTNAMSWVRQAPGKGLEWIGVITGRDITYYASWAKGRFTISRDNSKNTLYLQMNSLRAEDTAVYYCARDGGSSAITSNNIWGQGTLVTVSSGGGGSGGGGSQVQLQQSGPGLVKPSETLSITCTVSGFSLTNYGVHWIRQAPGKGLEWLGVIWSGGNTDYNTPFTSRFTITKDNSKNQVYFKLRSVRADDTAIYYCARALTYYDYEFAYWGQGTLVTVSSASTKGPSVFPLAPSSKSTSGGTAALGCLVKDYFPEPVTVSWNSGALTSGVHTFPAVLQSSGLYSLSSVVTVPSSSLGTQTYICNVNHKPSNTKVDKRVEPKSCDKTHTCPPCPAPEAAGGPSVFLFPPKPKDTLMISRTPEVTCVVVDVSHEDPEVKFNWYVDGVEVHNAKTKPREEQYNSTYRVVSVLTVLHQDWLNGKEYKCAVSNKALPAPIEKTISKAKGQPREPQVYTLPPSRDELTKNQVSLSCAVKGFYPSDIAVEWESNGQPENNYKTTPPVLDSDGSFFLVSKLTVDKSRWQQGNVFSCSVMHEALHNHYTQKSLSLSPGGGGGSGGGGSDVVMTQSPSSVSASVGDRVTITCQASQNIRTYLSWYQQKPGKAPKLLIYAAANLASGVPSRFSGSGSGTDFTLTISDLEPGDAATYYCQSTYLGTDYVGGAFGGGTKLTVLGGGGSGGGGSGGGGSGGGGSEVQLVESGGGLVQPGGSLRLSCTASGFTISSYHMQWVRQAPGKGLEYIGTISSGGNVYYASSARGRFTISRPSSKNTVDLQMNSLRAEDTAVYYCARDSGYSDPMWGQGTLVTVSS
light: ENVLTQSPASLSASPGERVTITCSASSSVSYMHWYQQKPGQAPKLWIYDTSKLASGVPSRFSGSGSGNDHTLTISSMEPEDFATYYCFQGSVYPFTFGQGTKVTVLGGGGSGGGGSGGGGSGGGGSQVTLKESGPGLVQPGQTLSLTCAFSGFSLSTSGMGVGWIRQPPGKGLEWLAHIWWDDDKRYNPALKSRLTISKDTSKNQVYLQMNSLDAEDTAVYYCARMELWSYYFDYWGQGTLVTVSSGGGGSGGGGSEIVLTQSPSTLSVSPGERATFSCRASQSIGTNIHWYQQKPGKPPRLLIKYASESISGIPDRFSGSGSGTEFTLTISSVQSEDFAVYYCQQNNNWPTTFGPGTKLTVLRTVAAPSVFIFPPSDEQLKSGTASVVCLLNNFYPREAKVQWKVDNALQSGNSQESVTEQDSKDSTYSLSSTLTLSKADYEKHKVYACEVTHQGLSSPVTKSFNRGECGGDKTHTCPPCPAPEAAGGPSVFLFPPKPKDTLMISRTPEVTCVVVDVSHEDPEVKFNWYVDGVEVHNAKTKPREEQYNSTYRVVSVLTVLHQDWLNGKEYKCAVSNKALPAPIEKTISKAKGQPREPQVYTLPPSRDELTKNQVSLWCLVKGFYPSDIAVEWESNGQPENNYKTTPPVLDSDGSFFLYSKLTVDKSRWQQGNVFSCSVMHEALHNRFTQKSLSLSPGGGGGSGGGGSDIQMTQSPSTLSASVGDRVTITCQASQSISSHLNWYQQKPGKAPKLLIYKASTLASGVPSRFSGSGSGTEFTLTISSLQPDDFATYYCQQGYSWGNVDNVFGGGTKVTVLGGGGSGGGGSGGGGSGGGGSEVQLLESGGGLVQPGGSLSLSCAASGFSFSSGYDMCWVRQAPGKGLEWIACIAAGSAGITYDANWAKGRFTISRDNSKNTLYLQMNSLRAEDTAVYYCARSAFSFDYAMDLWGQGTLVTVSS
With B1 the “TDCC EC50 (pM)” value [1] was 0.322 pM.

B2: SI-79R2 (scFv)
scFv: EIVMTQSPSTLSASVGDRVIITCRASQSIGTNIHWYQQKPGKAPKLLIYYASESISGIPSRFSGSGSGAEFTLTISSLQPDDFATYYCQQNNNWPTTFGQGTKLTVLGGGGSGGGGSGGGGSGGGGSEVQLVESGGGLVQPGGSLRLSCTVSGFSLTNYGVHWVRQAPGKGLEWVGVIWSGGNTDYNTPFTSRFTISRDTSKNTVYLQMNSLRAEDTAVYYCARALTYYDYEFAYWGQGTLVTVSSGSHHHHHH
notes: the entry holds the whole construct; also called H1 scFv-6His; humanized scFv
B2 showed a Kd [2] of 12 nM, a Kd [3] of 12 nM and a koff [3] of 0.0107 s⁻¹. It also gave a kon [3] of 894000 M⁻¹ s⁻¹.

B3: SI-79C3 (antibody, human IgG1, kappa, V domains shown)
VH: QVQLQQSGPGLVKPSETLSITCTVSGFSLTNYGVHWIRQAPGKGLEWLGVIWSGGNTDYNTPFTSRFTITKDNSKNQVYFKLRSVRADDTAIYYCARALTYYDYEFAYWGQGTLVTVSS
VL: EIVLTQSPSTLSVSPGERATFSCRASQSIGTNIHWYQQKPGKPPRLLIKYASESISGIPDRFSGSGSGTEFTLTISSVQSEDFAVYYCQQNNNWPTTFGPGTKLTVLR
notes: Humanized version H7 in IgG format; also called H7; humanized H7 mAb
B3 gave a Kd [4] of 2.41 nM, a koff [4] of 0.000812 s⁻¹ and a kon [4] of 337000 M⁻¹ s⁻¹.

B4: SI-68P13 (other)
heavy: EIVLTQSPSTLSVSPGERATFSCRASQSIGTNIHWYQQKPGKPPRLLIKYASESISGIPDRFSGSGSGTEFTLTISSVQSEDFAVYYCQQNNNWPTTFGPGTKLTVLGGGGSGGGGSGGGGSGGGGSQVQLQQSGPGLVKPSETLSITCTVSGFSLTNYGVHWIRQAPGKGLEWLGVIWSGGNTDYNTPFTSRFTITKDNSKNQVYFKLRSVRADDTAIYYCARALTYYDYEFAYWGQGTLVTVSSGGGGSGGGGSEVQLVESGGGLVQPGGSLRLSCAASGFTISTNAMSWVRQAPGKGLEWIGVITGRDITYYASWAKGRFTISRDNSKNTLYLQMNSLRAEDTAVYYCARDGGSSAITSNNIWGQGTLVTVSSASTKGPSVFPLAPSSKSTSGGTAALGCLVKDYFPEPVTVSWNSGALTSGVHTFPAVLQSSGLYSLSSVVTVPSSSLGTQTYICNVNHKPSNTKVDKRVEPKSCDKTHTCPPCPAPEAAGGPSVFLFPPKPKDTLMISRTPEVTCVVVDVSHEDPEVKFNWYVDGVEVHNAKTKPREEQYNSTYRVVSVLTVLHQDWLNGKEYKCAVSNKALPAPIEKTISKAKGQPREPQVYTLPPSRDELTKNQVSLSCAVKGFYPSDIAVEWESNGQPENNYKTTPPVLDSDGSFFLVSKLTVDKSRWQQGNVFSCSVMHEALHNHYTQKSLSLSPGGGGGSGGGGSDVVMTQSPSSVSASVGDRVTITCQASQNIRTYLSWYQQKPGKAPKLLIYAAANLASGVPSRFSGSGSGTDFTLTISDLEPGDAATYYCQSTYLGTDYVGGAFGGGTKLTVLGGGGSGGGGSGGGGSGGGGSEVQLVESGGGLVQPGGSLRLSCTASGFTISSYHMQWVRQAPGKGLEYIGTISSGGNVYYASSARGRFTISRPSSKNTVDLQMNSLRAEDTAVYYCARDSGYSDPMWGQGTLVTVSS
light: ENVLTQSPASLSASPGERVTITCSASSSVSYMHWYQQKPGQAPKLWIYDTSKLASGVPSRFSGSGSGNDHTLTISSMEPEDFATYYCFQGSVYPFTFGQGTKVTVLGGGGSGGGGSGGGGSGGGGSQVTLKESGPGLVQPGQTLSLTCAFSGFSLSTSGMGVGWIRQPPGKGLEWLAHIWWDDDKRYNPALKSRLTISKDTSKNQVYLQMNSLDAEDTAVYYCARMELWSYYFDYWGQGTLVTVSSGGGGSGGGGSDVVMTQSPSTLSASVGDRVTINCQASESISSWLAWYQQKPGKAPKLLIYEASKLASGVPSRFSGSGSGTEFTLTISSLQPDDFATYYCQGYFYFISRTYVNSFGGGTKVEIKRTVAAPSVFIFPPSDEQLKSGTASVVCLLNNFYPREAKVQWKVDNALQSGNSQESVTEQDSKDSTYSLSSTLTLSKADYEKHKVYACEVTHQGLSSPVTKSFNRGECGGDKTHTCPPCPAPEAAGGPSVFLFPPKPKDTLMISRTPEVTCVVVDVSHEDPEVKFNWYVDGVEVHNAKTKPREEQYNSTYRVVSVLTVLHQDWLNGKEYKCAVSNKALPAPIEKTISKAKGQPREPQVYTLPPSRDELTKNQVSLWCLVKGFYPSDIAVEWESNGQPENNYKTTPPVLDSDGSFFLYSKLTVDKSRWQQGNVFSCSVMHEALHNRFTQKSLSLSPGGGGGSGGGGSDIQMTQSPSTLSASVGDRVTITCQASQSISSHLNWYQQKPGKAPKLLIYKASTLASGVPSRFSGSGSGTEFTLTISSLQPDDFATYYCQQGYSWGNVDNVFGGGTKVTVLGGGGSGGGGSGGGGSGGGGSEVQLLESGGGLVQPGGSLSLSCAASGFSFSSGYDMCWVRQAPGKGLEWIACIAAGSAGITYDANWAKGRFTISRDNSKNTLYLQMNSLRAEDTAVYYCARSAFSFDYAMDLWGQGTLVTVSS
In the case of B4, the “TDCC EC50 (pM)” value [1] is reported as 0.259 pM.

B5: SI-79X3 (bispecific antibody, human IgG1, kappa)
heavy 1: QVQLQQSGPGLVKPSETLSITCTVSGFSLTNYGVHWIRQAPGKGLEWLGVIWSGGNTDYNTPFTSRFTITKDNSKNQVYFKLRSVRADDTAIYYCARALTYYDYEFAYWGQGTLVTVSSASTKGPSVFPLAPSSKSTSGGTAALGCLVKDYFPEPVTVSWNSGALTSGVHTFPAVLQSSGLYSLSSVVTVPSSSLGTQTYICNVNHKPSNTKVDKRVEPKSCDKTHTCPPCPAPEAAGAPSVFLFPPKPKDTLMISRTPEVTCVVVDVSHEDPEVKFNWYVDGVEVHNAKTKPREEQYNSTYRVVSVLTVLHQDWLNGKEYKCAVSNKALPAPIEKTISKAKGQPREPQVYTLPPSRDELTKNQVSLTCLVKGFYPSDIAVEWESNGQPENNYKTTPPVLDSDGSFFLYSRLTVDKSRWQQGNVFSCSVMHEALHNHYTQKSLSLSPG
heavy 2: not shown
light 1: EIVLTQSPSTLSVSPGERATFSCRASQSIGTNIHWYQQKPGKPPRLLIKYASESISGIPDRFSGSGSGTEFTLTISSVQSEDFAVYYCQQNNNWPTTFGPGTKLTVLRTVAAPSVFIFPPSDEQLKSGTASVVCLLNNFYPREAKVQWKVDNALQSGNSQESVTEQDSKDSTYSLSSTLTLSKADYEKHKVYACEVTHQGLSSPVTKSFNRGEC
light 2: not shown
For B5, the “*EC50 (pM), TDCC, depletion of luciferized BxPC3 cells with activated T cells” value [5] was 20.3 pM.
